Consider two molecules from publication PMC6938032 (2020).

The target in experiment [1] is Neutrophil elastase (Homo sapiens) (UniProt P08246). Briefly: progress curve inhibition analysis. The note with it: cited from earlier work.
For experiment [2], the target named is T1, Neutrophil elastase (Homo sapiens, UniProt P08246).
T1 chain: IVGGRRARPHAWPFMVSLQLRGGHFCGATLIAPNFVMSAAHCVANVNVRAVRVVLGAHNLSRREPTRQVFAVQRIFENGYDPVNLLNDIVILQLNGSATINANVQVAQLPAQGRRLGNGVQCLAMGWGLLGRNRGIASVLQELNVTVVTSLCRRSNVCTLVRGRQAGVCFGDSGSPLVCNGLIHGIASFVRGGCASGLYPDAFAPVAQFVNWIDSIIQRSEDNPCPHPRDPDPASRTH
Briefly: progress curve inhibition analysis.

Experiment [3] has as its target T1, Neutrophil elastase. Briefly: SPR. Background: In SPR one partner is held on a chip, and binding of the other changes the refractive index at the surface.

The Ki is a measure of affinity in units of concentration, obtained from inhibition or displacement. As to EapH1 (from UniProt A0A0H3KEC5), the inhibition constant (Ki) in experiment [1] was 0.021 nM.

B1: EapH2 (protein)
chain: AEKDKLPATQKAKEMQNVPYTIAVDGIMAFNQSYLNLPKDSQLSYLDLGNKVKALLYDERGVTPEKIRNAKSAVYTITWKDGSKKEVDLKKDSYTANLFDSNSIKQIDINVKTK
What is called Kd is the constant that tells how readily two partners part at equilibrium. B1 displayed a Ki in experiment [2] of 2.11 nM. The same molecule had a Kd in experiment [3] of 2.16 nM.
